# Numbering of substitutions follows the chain as printed. Where two headings read alike, the source gives them in different places.
# T1: human IL1RAP on the cell surface (human, UniProt Q9NPH3 21-570)
# T1 sequence (looked up): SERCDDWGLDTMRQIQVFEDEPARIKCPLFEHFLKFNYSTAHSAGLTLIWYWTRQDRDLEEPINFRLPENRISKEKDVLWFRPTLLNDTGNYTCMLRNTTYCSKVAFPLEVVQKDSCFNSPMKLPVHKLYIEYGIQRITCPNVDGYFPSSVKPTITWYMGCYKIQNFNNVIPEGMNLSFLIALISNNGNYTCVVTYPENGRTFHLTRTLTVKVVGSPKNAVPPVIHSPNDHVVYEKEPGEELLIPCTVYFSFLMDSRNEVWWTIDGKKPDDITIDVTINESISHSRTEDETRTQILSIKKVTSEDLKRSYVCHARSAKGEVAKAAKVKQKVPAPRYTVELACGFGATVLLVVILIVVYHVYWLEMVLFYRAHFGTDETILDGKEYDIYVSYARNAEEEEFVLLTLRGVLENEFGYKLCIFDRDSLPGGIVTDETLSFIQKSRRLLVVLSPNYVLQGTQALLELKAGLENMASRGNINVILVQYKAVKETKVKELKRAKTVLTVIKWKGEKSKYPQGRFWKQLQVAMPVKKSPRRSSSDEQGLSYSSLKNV
# T2: recombinant hIL1RAP Domain1+2+3 (aa21-367) (human, UniProt Q9NPH3 21-367)
# T2 construct: Numbering on Uniprot Q9NPH3
# T2 sequence (looked up): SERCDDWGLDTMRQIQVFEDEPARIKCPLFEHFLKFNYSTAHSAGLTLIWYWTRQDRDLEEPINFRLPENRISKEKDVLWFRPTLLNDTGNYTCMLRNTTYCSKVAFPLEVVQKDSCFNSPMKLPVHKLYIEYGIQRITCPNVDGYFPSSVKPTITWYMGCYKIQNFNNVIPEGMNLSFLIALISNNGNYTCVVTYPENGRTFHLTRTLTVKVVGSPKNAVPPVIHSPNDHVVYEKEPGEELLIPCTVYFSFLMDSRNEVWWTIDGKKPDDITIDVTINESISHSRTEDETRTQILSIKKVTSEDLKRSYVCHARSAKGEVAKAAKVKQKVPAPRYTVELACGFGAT
# T3: mouse IL1RAP (mouse (Mus musculus), UniProt Q61730 21-367, limits assumed)
# T3 construct: Coated ortholog in the cross reactivity ELISA; also called mIL1RAP; murine IL1RAP
# T3 sequence (looked up): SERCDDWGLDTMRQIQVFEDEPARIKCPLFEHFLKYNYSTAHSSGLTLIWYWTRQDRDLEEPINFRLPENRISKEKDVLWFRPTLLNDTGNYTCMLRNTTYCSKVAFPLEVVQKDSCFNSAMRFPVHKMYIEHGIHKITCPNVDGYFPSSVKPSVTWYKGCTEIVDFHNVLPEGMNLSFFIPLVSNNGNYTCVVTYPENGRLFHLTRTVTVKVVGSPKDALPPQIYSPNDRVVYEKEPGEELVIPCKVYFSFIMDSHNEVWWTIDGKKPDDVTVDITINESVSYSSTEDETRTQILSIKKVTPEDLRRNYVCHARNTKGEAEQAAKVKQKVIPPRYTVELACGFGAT
# T4: rat IL1RAP (rat (Rattus norvegicus), UniProt Q63621 21-367, limits assumed)
# T4 construct: also called rnIL1RAP
# T4 sequence (looked up): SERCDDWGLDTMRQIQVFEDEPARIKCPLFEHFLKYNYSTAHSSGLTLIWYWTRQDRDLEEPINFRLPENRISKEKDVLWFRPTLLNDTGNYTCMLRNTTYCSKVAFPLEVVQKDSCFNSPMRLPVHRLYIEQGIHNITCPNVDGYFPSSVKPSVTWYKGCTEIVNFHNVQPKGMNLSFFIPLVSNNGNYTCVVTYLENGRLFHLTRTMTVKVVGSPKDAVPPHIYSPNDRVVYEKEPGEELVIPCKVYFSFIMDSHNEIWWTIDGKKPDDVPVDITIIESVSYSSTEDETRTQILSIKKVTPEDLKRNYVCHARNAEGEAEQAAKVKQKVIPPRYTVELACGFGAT
# T5: recombinant mf IL1RAP aa21-367 (cynomolgus monkey (Macaca fascicularis), UniProt A0A2K5X5J5 21-367)
# T5 construct: also called cynomolgus monkey IL1RAP; cyno IL1RAP
# T5 sequence: T2 sequence (looked up) with L183F, T273P, K326T
# B1: chimeric 48D2 (antibody, V domains shown, not shown: a dimerising Fc or GST)
# VH: QEQLEESGGGLVKPGGSLTLTCTVSGPSLSHFDITWVRQAPGSGLEWIGTISPGVSTYYASWAKSRSTITSNTNLNTVTLKMTSLTAADTATYFCARGGVGSSWKAFDLWGPGTLVTISS
# VL: APVLTQTPASVEVAVGGTVTIKCQASESISTALAWYQQKPGQPPKLLIYKASTLPSGVSSRFKGSGSGTEFALTISDLECDDAATYYCQQGFSSGNVHNAFGGGTEVVVKR
# notes: Chimeric rabbit/human IgG1, expressed in CHO cells; also called ch48D2; 48D2 chimeric (ch) rabbit/human anti-human IL1RAP
# B2: h48D2 VH5.GL:VL4 (antibody, human IgG1, kappa, L234A L235A, V domains shown)
# VH: QEQLEESGGGLVKPGGTLSLTCTVSGPSLSHFDITWIRQPPGKGLEWIGTISPGVSTYYASWAKSRVTISVDTSLNTVSLKLSSVTAADTATYFCARGGVGSSWKAFDLWGPGTLVTISS
# VL: ELVMTQSPSSVSASVGDRVTITCQASESISTALAWYQQKPGKAPKLLIYKASTLPSGVPSRFSGSGSGTDFTLTINSLQPEDFATYYCQQGFSSGNVHNAFGGGTKVEIKR
# notes: Humanized and de-immunized; also called VL4:VH5.GL; 48D2 variant VH5.GL:VL4
# Columns and labels:
# [1] = target: T1, human IL1RAP on the cell surface; assay: cell-based or functional assay
# [2] = target: T1, human IL1RAP on the cell surface; assay: flow cytometry on SKMEL-5 cells, Alexa488 anti-human IgG secondary
# Method: FIG. 12: Dose-dependent binding of chimeric 48D2 to cell membrane IL1RAP Chimeric 48D2 or hIgG1 (hIg=human immunoglobulin) isotype control antibody was added to SKMEL-5 cells in increasing concentrations and extracellular binding was analyzed by flow cytometry. Chimeric 48D2 specifically bound IL1RAP on the cell membrane in a dose-dependent manner and with higher mean fluorescent intensity (MFI) compared to the hIgG1 isotype control antibody.
# The malignant melanoma (or malign melanoma) cell line SKMEL-5, which expresses IL1RAP on the cell surface, was used for the analysis. SKMEL-5 cells were cultured according to standard procedures. 5×10⁴ SKMEL-5 cells were blocked with human Fc block and then stained with 8-step serial dilutions (100 μg/ml-0.03 μg/ml) of chimeric 48D2 or isotype control antibody. Following secondary staining using Alexa488-conjugated anti-human IgG antibody, 10000 cells/sample were analyzed on a CytoFlex (Beckman Coulter). HTB183 cells expressing low levels of surface IL1RAP were used as negative controls.
# [3] = target: T2, recombinant hIL1RAP Domain1+2+3 …; assay: BLI (BLItz), antibody on Protein A biosensor, hIL1RAP (21-367) in solution
# Method: (§1) Affinity measurements were done on BLItz™ Label-Free Protein Analysis System from ForteBio, using the Basic Kinetics module in the BLItz Pro 1.3.1.3 software from Molecular Devices. Protein A biosensors were hydrated in blocking buffer (PBS, 0.5% BSA, 0.05% Tween 20, pH 7.4) for minimum 10 min at room temperature before coating. Protein A biosensors were coated with antibodies by dipping the biosensors in 200 μl of antibody solution (10 μg/ml in blocking buffer) for 30 min at room temperature. The sensors were then incubated in 200 μl blocking buffer for at least 10 min before use. […] The baseline was made in blocking buffer with a duration time of 30 sec. Association was made for 120 sec in hIL1RAP followed by 120 sec dissociation in blocking buffer.
# Affinity measurement results are shown in Table 4 for chimeric 48D2, as well as for humanized 48D2 variant VH5:VL4 (see Example 11) and for humanized and de-immunized 48D2 variant VH5.GL:VL4 (see Example 13). kₐ is the association rate constant, for characterization of the antibody binding to the target, kd is the dissociation rate constant, for characterization of the antibody dissociation from the target, and KD is the equilibrium dissociation constant between the antibody and its antigen, the ratio of kd/kₐ. […] The lower the KD value (lower concentration), the higher the affinity.
# mouse IL1RAP [4] = target: T3, mouse IL1RAP; assay: indirect ELISA on coated IL1RAP, goat anti-human antibody-alkaline phosphatase, absorbance at 405 nm
# Method: (§2) Microtiter plate wells were coated with IL1RAP orthologs (Mus musculus, Rattus norvegicus, Macaca fascicularis (Mf, synonymous to cynomolgus monkey), Oryctolagus cuniculus, Canis lupus familiaris, Sus scrofa) and incubated for 1 hour at 37° C. Plates were washed followed by a blocking step. After 1 hour incubation at room temperature on agitation, the plates were washed again. The antibody was diluted in fourfold serial dilution, ranging from 4000 ng/ml to 0.24 ng/ml, in ELISA blocking solution, and then transferred to the ELISA plate. Plates were incubated at 37° C. in 30 min on agitation and then washed. Goat Anti-Human antibody conjugated to Alkaline Phosphatase was added and incubated 30 min at 37° C. on agitation. The plates were washed followed by addition of substrate (4-Nitrophenyl phosphate disodium salt hexahydrate). The plates were thereafter incubated at room temperature on agitation and absorbance at 405 nm measured consecutively for 50 min. Absorbance at 0 min was taken as background signal.
# (§3) The antibody is added in increasing concentrations and absorbance at 405 nm is used to detect binding of the antibody to IL1RAP orthologues. 48D2 is cross reactive to IL1RAP from human, cynomolgus monkey (cyno) and pig, but has no cross reactivity to IL1RAP from mouse, rat, rabbit or dog (FIG. 14 and Table 7).
# rat IL1RAP [5] = target: T4, rat IL1RAP; assay: as above
# Method: as §2, §3
# [6] = target: T1, human IL1RAP on the cell surface; assay: cell-based or functional assay; remark: listed apart in the source
# [7] = target: T1, human IL1RAP on the cell surface; assay: cell-based or functional assay; remark: listed apart in the source
# [8] = target: T2, recombinant hIL1RAP Domain1+2+3 …; assay: bio-layer interferometry, human IL1RAP
# Method: as §1
# KD values for affinity towards human IL1RAP are shown in Table 17 for the de-immunized h48D2 variants. Affinity was measured using bio-layer interferometry. […] See also Table 4 for a direct comparison of 48D2, humanized 48D2, and de-immunized h48D2.
# [9] = target: T2, recombinant hIL1RAP Domain1+2+3 …; assay: indirect ELISA on coated IL1RAP, goat anti-human antibody-alkaline phosphatase, absorbance at 405 nm
# [10] = target: T5, recombinant mf IL1RAP aa21-367; assay: as above
# mouse IL1RAP [11] = target: T3, mouse IL1RAP; assay: as above; remark: listed apart in the source
# rat IL1RAP [12] = target: T4, rat IL1RAP; assay: as above; remark: listed apart in the source
# pig IL1RAP = target: T6, pig IL1RAP (pig (Sus scrofa), UniProt A0A287B9B9 21-357); assay: as above
# T6 construct: also called ssIL1RAP
# T6 sequence (A0A287B9B9 entry or part of it limits assumed): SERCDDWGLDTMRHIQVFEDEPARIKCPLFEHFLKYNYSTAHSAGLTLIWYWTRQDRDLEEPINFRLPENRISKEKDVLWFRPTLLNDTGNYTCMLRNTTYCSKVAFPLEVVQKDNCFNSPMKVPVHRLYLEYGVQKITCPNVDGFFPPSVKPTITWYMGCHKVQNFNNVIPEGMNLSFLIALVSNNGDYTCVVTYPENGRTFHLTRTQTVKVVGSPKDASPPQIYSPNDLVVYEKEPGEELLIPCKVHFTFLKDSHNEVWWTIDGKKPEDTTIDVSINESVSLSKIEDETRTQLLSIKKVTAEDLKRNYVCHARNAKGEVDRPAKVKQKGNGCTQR
binder,measurement,setting,value
B1,IC50 of IL-1α signaling (HEK-Blue assay),[1],1.92 nM
same,IC50 of IL-1β signaling (HEK-Blue assay),[1],0.7 nM
same,IC50 of IL-33 signaling (HEK-Blue assay),[1],2.92 nM
same,IC50 of IL-36α signaling (HEK-Blue assay),[1],0.0083 nM
same,IC50 of IL-36β signaling (HEK-Blue assay),[1],0.0081 nM
same,IC50 of IL-36γ signaling (HEK-Blue assay),[1],0.0111 nM
same,EC50 (read off the curve),[2],~6 nM
same,Kd,[3],2.67 nM
same,koff,[3],0.000174 s⁻¹
same,kon,[3],65200 M⁻¹ s⁻¹
same,binding result,mouse IL1RAP [4],no binding (tested: 4000 ng/mL)
same,binding result,rat IL1RAP [5],no binding (tested: 4000 ng/mL)
B2,IC50 of IL-1α signaling (HEK-Blue assay),[6],0.268 nM
same,IC50 of IL-1β signaling (HEK-Blue assay),[6],0.097 nM
same,IC50 of IL-33 signaling (HEK-Blue assay),[6],7.51 nM
same,IC50 of IL-36α signaling (HEK-Blue assay),[6],0.147 nM
same,IC50 of IL-36β signaling (HEK-Blue assay),[6],0.169 nM
same,IC50 of IL-36γ signaling (HEK-Blue assay),[6],0.206 nM
same,IC50 of IL-33 signaling (HEK-Blue cells stably transfected with the IL-36 receptor),[7],0.324 nM
same,IC50 of IL-36α signaling (HEK-Blue cells stably transfected with the IL-36 receptor),[7],0.0557 nM
same,IC50 of IL-36β signaling (HEK-Blue cells stably transfected with the IL-36 receptor),[7],0.161 nM
same,IC50 of IL-36γ signaling (HEK-Blue cells stably transfected with the IL-36 receptor),[7],0.088 nM
same,Kd,[8],2.53 nM
same,Kd,[3],2.53 nM
same,koff,[3],0.000197 s⁻¹
same,kon,[3],78000 M⁻¹ s⁻¹
same,EC50 (read off the curve),[9],~0.05 µg/mL
same,EC50 (read off the curve),[10],~0.05 µg/mL
same,binding result,mouse IL1RAP [11],no binding (tested: 4000 ng/mL)
same,binding result,rat IL1RAP [12],no binding (tested: 4000 ng/mL)
same,EC50 (read off the curve),pig IL1RAP,~0.05 µg/mL

# From patent publication US20220242950A1 (CANTARGIA, published 2022)
